Substitutions are numbered along the chain they refer to.
Legend:
recombinant human CD122 [1] = molecular target: T1, recombinant human CD122 (human, UniProt P14784 27-239, limits assumed); experiment: hybridoma supernatant screening, method not described
T1 construct: also called IL-2Rβ
T1 sequence (looked up): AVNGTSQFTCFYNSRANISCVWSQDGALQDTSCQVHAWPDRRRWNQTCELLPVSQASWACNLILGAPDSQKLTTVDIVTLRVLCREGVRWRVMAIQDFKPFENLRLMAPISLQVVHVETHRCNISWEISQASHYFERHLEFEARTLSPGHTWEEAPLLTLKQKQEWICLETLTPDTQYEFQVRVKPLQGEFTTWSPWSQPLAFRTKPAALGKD

[2] = molecular target: T2, human CD132 on HEK293 cells (human, UniProt P31785 23-369); experiment: Flow cytometry (Median-APC) on HEK293/CD132 cells; the box gives no unit, the axis is Ab conc.(nM); the curve has no upper plateau in the range shown
T2 construct: whole, on cells; also called cell surface CD132
T2 sequence (looked up): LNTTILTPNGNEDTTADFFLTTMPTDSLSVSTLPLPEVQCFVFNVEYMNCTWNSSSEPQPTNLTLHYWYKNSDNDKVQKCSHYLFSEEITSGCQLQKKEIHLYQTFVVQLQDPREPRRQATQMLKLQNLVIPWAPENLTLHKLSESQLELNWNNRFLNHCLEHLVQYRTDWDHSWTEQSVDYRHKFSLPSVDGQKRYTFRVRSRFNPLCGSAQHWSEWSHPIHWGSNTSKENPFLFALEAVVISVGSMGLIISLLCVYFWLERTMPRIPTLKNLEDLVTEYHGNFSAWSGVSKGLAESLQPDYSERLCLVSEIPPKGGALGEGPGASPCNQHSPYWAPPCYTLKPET
Protocol: (§1) Briefly, a 96-well plate was seeded with 3×10⁵ cells each well, centrifuged at 400 g for 5 minutes and supernatants discarded, then added 100 μl of antibody (5× serial dilutions, 0.0064 to 100 nM) each well and gently mixed. After 60 minutes of incubation at 4° C., plates were washed several times to remove excess antibodies. Secondary fluorochrome-conjugated goat anti-human IgG antibody (Jackson Immunoresearch, Cat No. 109-606-098) was then added and incubated with cells at 4° C. for 20 minutes. After another round of centrifugation and washing, cells were resuspended in assay buffer (1X PBS containing 2% FBS) for reading on a flow-cytometer. Median Fluorescence Intensity (MFI) readouts were plotted against antibody concentration and analyzed with GraphPad Prism 6.0 software.

[3] = molecular target: T3, human CD122 on HEK293 cells (human, UniProt P14784 27-551); experiment: Flow cytometry (Median-APC) on HEK293/CD122 cells; the box gives no unit, the axis is Ab conc.(nM)
T3 construct: whole, on cells; also called cell surface CD122
T3 sequence (looked up): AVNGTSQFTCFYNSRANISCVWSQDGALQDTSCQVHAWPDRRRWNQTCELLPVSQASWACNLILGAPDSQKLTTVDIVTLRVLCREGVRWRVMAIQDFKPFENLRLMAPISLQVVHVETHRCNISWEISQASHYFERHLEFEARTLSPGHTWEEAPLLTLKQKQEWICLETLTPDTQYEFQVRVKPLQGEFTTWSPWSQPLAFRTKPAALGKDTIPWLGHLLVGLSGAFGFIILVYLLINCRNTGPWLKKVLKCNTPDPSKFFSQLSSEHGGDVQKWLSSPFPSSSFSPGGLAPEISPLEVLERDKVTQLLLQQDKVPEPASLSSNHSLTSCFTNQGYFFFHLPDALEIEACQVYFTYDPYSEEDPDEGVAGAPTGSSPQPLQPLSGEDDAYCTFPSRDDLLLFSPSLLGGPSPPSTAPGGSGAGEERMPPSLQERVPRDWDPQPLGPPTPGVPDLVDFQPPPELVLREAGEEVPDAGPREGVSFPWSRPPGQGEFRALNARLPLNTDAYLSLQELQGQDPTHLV
Protocol: as §1

recombinant human CD122 [4] = molecular target: T1, recombinant human CD122; experiment: GCI (WAVEsystem), FIT-Ig captured by anti-human IgG Fc, antigen in solution
Protocol: (§2) Binding affinity and kinetics constants of humanized CD122/CD132 FIT-Ig were determined using a label-free biosensor on WAVEsystem (Creoptix AG, Switzerland) by grating-coupled interferometry (GCI). Briefly, a PCP WAVEchip (Creoptix AG) was pre-immobilized with goat anti-human IgG Fc antibody to a density of 3830 pg/mm² by amine coupling, and used to capture humanized CD122/CD132 FIT-Ig generated from Example 3.2.1 to a density of ˜90 pg/mm², then exposed to recombinant human/cyno CD122 or CD132 serially diluted (3× dilutions from 200 nM to […] for human CD122, human CD132 and cyno CD132, respectively; and from 1000 nM to 1.37 nM for cyno CD122) in 1X HBS-EP+ buffer (Cytiva, Cat No. BR100669) by injection at 60 μL/min for 250s to assess association, followed by 1200s dissociation. After each round of association and dissociation, WAVEchip surface was regenerated by subject to pH 1.5 Glycine-HCl buffer injection at 60 μL/min for 120s. Sensorgrams were recorded at 25° C., the data were analyzed on WAVEcontrol (Creoptix AG) and double referenced by subtracting the signals from blank injections and the reference channel. A Langmuir 1:1 model was used for data fitting.

recombinant cyno CD122 = molecular target: T4, recombinant cyno CD122 (cynomolgus, UniProt Q38J85 27-239, limits assumed); experiment: as above
T4 construct: also called cynomolgus CD122
T4 sequence (looked up): T1 sequence (looked up) with Q7R, A66T, T74A, L83M, V92M, E127K, L158M
Protocol: as §2

recombinant human CD132 [5] = molecular target: T5, recombinant human CD132 (human, UniProt P31785 23-262, limits assumed); experiment: as above
T5 construct: also called IL-2Rγ
T5 sequence (looked up): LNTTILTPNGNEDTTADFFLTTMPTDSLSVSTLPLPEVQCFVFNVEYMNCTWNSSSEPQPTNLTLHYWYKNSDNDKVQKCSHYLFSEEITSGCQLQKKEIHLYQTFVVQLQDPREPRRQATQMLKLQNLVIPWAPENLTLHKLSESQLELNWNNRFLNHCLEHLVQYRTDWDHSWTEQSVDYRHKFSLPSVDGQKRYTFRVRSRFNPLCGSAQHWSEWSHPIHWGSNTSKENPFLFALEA
Protocol: as §2

recombinant cyno CD132 = molecular target: T6, recombinant cyno CD132 (cynomolgus, UniProt A0A2K5VGJ6 23-262); experiment: as above
T6 construct: also called cynomolgus CD132
T6 sequence: T5 sequence (looked up) with T14A, A16T, T22S, H141R, T228S
Protocol: as §2

[6] = molecular target: T7, CD122/CD132 complex on HEK-Blue IL-2 cells (UniProt P14784 27-551; P31785 23-369, limits assumed); experiment: cell-based or functional assay
T7 sequence (looked up) 1: T3 sequence (looked up)
T7 sequence (looked up) 2: T2 sequence (looked up)

recombinant human CD122 [7] = molecular target: T1, recombinant human CD122; experiment: ELISA, plate coated with 1 µg/mL recombinant human CD122
Protocol: (§3) Plates were washed three times with PBST, added HRP labeled anti-human IgG secondary antibody and incubated at RT for 15 minutes, then washed 5 times with PBST. For color development, 100 μl of tetramethylbenzidine (TMB) chromogenic solution was added to each well, the reaction was quenched by 1 N HCl and absorbance at 450 nm was measured on a microplate reader. Binding signals were plotted against antibody concentration with GraphPad Prism 6.0 software and EC₅₀ values were calculated accordingly.

recombinant human CD132 [8] = molecular target: T5, recombinant human CD132; experiment: ELISA, plate coated with 1 µg/mL recombinant human CD132
Protocol: as §3

[9] = molecular target: T3, human CD122 on HEK293 cells; experiment: Flow cytometry (MFI) on HEK293 cells overexpressing human CD122; the table gives no unit, the axis is Fab conc.(nM)
Protocol: as §1

[10] = molecular target: T2, human CD132 on HEK293 cells; experiment: Flow cytometry (MFI) on HEK293 cells overexpressing human CD132; the table gives no unit, the axis is Fab conc.(nM); the curve has no upper plateau in the range shown
Protocol: as §1

recombinant human CD132 [11] = molecular target: T5, recombinant human CD132; experiment: hybridoma supernatant screening, method not described

B1: CD122-mAb77 (antibody, V domains shown)
VH: QVQLQQSGPELVKPGASVKMSCKASGYRFSDYVISWVKQRSGQGLEWIGEIYPGDGNTYYNEMFKGRATLTADKSPNTAYMKLSSLTSEDSALYFCARGSYTYDNYAMDFWGQGTSVTVSS
VL: DVLMTQTPLSLPVSLGDQASISCRSSQNIVHSNGNTYLEWYLQKPGQSPKLLIYKVSNRFSGVPDRFSGSGSGTDFTLKISRVEAEDLGLYYCFQGSHIPWTFGGGTKLEIK
notes: Mouse hybridoma antibody; also called clone #CD122-mAb77
Recombinant human CD122 [1]
  binding result: binds

B2: huFIT2019-86b-51 (bispecific antibody, human IgG1, kappa, L234A L235A)
chain 1: not shown
chain 2: EVQLVQSGAEVKKPGASVKVSCKASGYTFTDYVISWVRQATGQGLEWMGEIYPGDAQTYYNEMFKGRVTMTRDTSISTAYMELSSLRSEDTAVYYCARGSYTYDNYAMDFWGQGTTVTVSSASTKGPSVFPLAPSSKSTSGGTAALGCLVKDYFPEPVTVSWNSGALTSGVHTFPAVLQSSGLYSLSSVVTVPSSSLGTQTYICNVNHKPSNTKVDKKVEPKSC
chain 3: not shown
notes: also called huFIT2019-8b-51
[2]
  EC50: 17.8 nM
[3]
  EC50: 5.27 nM
Recombinant human CD122 [4]
  Kd: 17.1 nM
  koff: 0.00107 s⁻¹
  kon: 62700 M⁻¹ s⁻¹
Recombinant cyno CD122
  Kd: 91.6 nM
  koff: 0.00697 s⁻¹
  kon: 76100 M⁻¹ s⁻¹
Recombinant human CD132 [5]
  Kd: 9.02 nM
  koff: 0.000339 s⁻¹
  kon: 37500 M⁻¹ s⁻¹
Recombinant cyno CD132
  Kd: 10.6 nM
  koff: 0.000286 s⁻¹
  kon: 27000 M⁻¹ s⁻¹
[6]
  EC50 from SEAP reporter gene assay: 0.19 nM

B3: FIT2019-86b (bispecific antibody, human IgG1, kappa, L234A L235A)
chain 1: not shown
chain 2: QVQLQQSGPELVKPGASVKMSCKASGYRFSDYVISWVKQRSGQGLEWIGEIYPGDGNTYYNEMFKGRATLTADKSPNTAYMKLSSLTSEDSALYFCARGSYTYDNYAMDFWGQGTSVTVSSASTKGPSVFPLAPSSKSTSGGTAALGCLVKDYFPEPVTVSWNSGALTSGVHTFPAVLQSSGLYSLSSVVTVPSSSLGTQTYICNVNHKPSNTKVDKKVEPKSC
chain 3: DIQMTQTPSSLSASLGDRVTISCRASQDISNYLNWYQQKPDGTVKLLIYYKSRLHSGVPSRFSGSGSGTEYSLTINNLEQEDFATYFCHQGHTIPFTFGSGTKLEIKRTVAAPSVFIFPPSDEQLKSGTASVVCLLNNFYPREAKVQWKVDNALQSGNSQESVTEQDSKDSTYSLSSTLTLSKADYEKHKVYACEVTHQGLSSPVTKSFNRGEC
notes: FIT-Ig with mouse V domains of CD122-mAb77 (outer Fab) and CD132-mAb17 (inner Fab), human constant domains; also called anti-CD122/CD132 FIT2019-86b
Recombinant human CD122 [7]
  EC50: 0.324 nM
Recombinant human CD132 [8]
  EC50: 0.662 nM
[9]
  EC50: 2.2 nM
[6]
  EC50 from SEAP reporter gene assay: 0.125 nM
[10]
  EC50: 75.6 nM

B4: CD132-mAb17 (antibody, V domains shown)
VH: EVQLQQPGSELVRPGASVKLSCKASGYTFTSYWMHWMKQRPGQGLEWIGHIYLGGGATNYAEKFRSKATLTADTSSSTAYMQLSSLTSEDSAVYYCTRSQPYYYGMDSWGQGTSVTVSS
VL: DIQMTQTPSSLSASLGDRVTISCRASQDISNYLNWYQQKPDGTVKLLIYYKSRLHSGVPSRFSGSGSGTEYSLTINNLEQEDFATYFCHQGHTIPFTFGSGTKLEIK
notes: Mouse hybridoma antibody; also called clone #CD132-mAb17; mAb CD132-mAb17
Recombinant human CD132 [11]
  binding result: binds

— patent US20250002594A1 (SHANGHAI EPIMAB BIOTHERAPEUTICS, published 2025)
